Data set [1] concerns the molecule itself. The data set can be described thus: not stated; purified SCO3205 in solution; the method is told only in the Supplementary Methods.
For data set [2], the target named is T1, SCO3205 (MarR family regulator) (Streptomyces coelicolor, UniProt Q9KYU1 1-163).
T1 sequence: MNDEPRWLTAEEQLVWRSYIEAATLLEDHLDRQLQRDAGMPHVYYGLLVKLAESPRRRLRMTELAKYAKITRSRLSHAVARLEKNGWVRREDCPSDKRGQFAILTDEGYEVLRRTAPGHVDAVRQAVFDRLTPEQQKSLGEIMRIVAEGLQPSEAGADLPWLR
In words: crystal structure; 2.8 A; one dimer per duplex; SPR (ReDCaT, Biacore T200) in HBS-EP+: 10 mM HEPES pH 7.4, 150 mM NaCl, 3 mM EDTA, 0.05% P20, 20°C. The following applies: protein: recombinant; tags: N-terminal His tag plus TEV site, not removed; chain copies: 2; blunt; self-complementary, 2 copies. (In SPR one partner is held on a chip, and binding of the other changes the refractive index at the surface.)

In general, stoichiometry N refers to a count of units in the complex or per binding partner.

B1: SCO3205, MarR family transcriptional regulator from Streptomyces coelicolor (natural protein, UniProt Q9KYU1 1-163, looked up)
chain: MNDEPRWLTAEEQLVWRSYIEAATLLEDHLDRQLQRDAGMPHVYYGLLVKLAESPRRRLRMTELAKYAKITRSRLSHAVARLEKNGWVRREDCPSDKRGQFAILTDEGYEVLRRTAPGHVDAVRQAVFDRLTPEQQKSLGEIMRIVAEGLQPSEAGADLPWLR
notes: SCO3205, MarR family transcriptional regulator, Streptomyces coelicolor; the tag was not removed for any experiment; Total deduced molecular mass 20523 Da; also called MFR; source: E. coli BL21 (DE3), purified (HisTrap nickel column, Superdex 75 gel filtration); not shown: His tag, N-terminal, kept
Turning to B1, the “stoichiometry N” value in data set [1] stood at 2.

B2: symmetrized O3204 22-mer (dsDNA)
DNA 1: AAAGATTGAGATCTCAATCTTT
DNA 2: AAAGATTGAGATCTCAATCTTT
With B2, the binding result in data set [2] is recorded as “binds”.

The values are drawn from PMC3737563, “Investigation of DNA sequence recognition by a streptomycete MarR family transcriptional regulator through surface plasmon resonance and X-ray crystallography” (Nucleic Acids Research, 2013).
